Patent publication US20250326842A1 (BEIGENE SWITZERLAND, published 2025)

Tests used:
[1] = molecular target: T1, human PVRIG expressed on cells (human, UniProt Q6DKI7 41-326); assay: cell-based or functional assay
T1 sequence: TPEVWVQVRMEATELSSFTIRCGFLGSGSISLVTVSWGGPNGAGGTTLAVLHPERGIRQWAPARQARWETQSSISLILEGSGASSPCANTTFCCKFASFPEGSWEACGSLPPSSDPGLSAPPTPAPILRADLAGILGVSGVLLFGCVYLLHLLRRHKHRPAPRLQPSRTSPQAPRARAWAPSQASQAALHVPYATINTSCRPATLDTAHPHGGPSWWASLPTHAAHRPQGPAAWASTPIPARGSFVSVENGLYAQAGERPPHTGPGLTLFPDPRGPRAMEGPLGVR

human PVRIG-mIgG2a [2] = molecular target: T2, human PVRIG-mIgG2a (human, UniProt Q6DKI7 41-171, limits assumed); assay: ELISA, hPVRIG-mIgG2a coated at 0.5 µg/mL
T2 construct: also called hPVRIG-mIgG2a; hPVRIG; not shown: mouse IgG2a Fc
T2 sequence: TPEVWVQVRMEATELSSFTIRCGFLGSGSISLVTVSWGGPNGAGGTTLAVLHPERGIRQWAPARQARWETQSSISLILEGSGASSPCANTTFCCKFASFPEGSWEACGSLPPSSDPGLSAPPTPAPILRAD

FcγRIIA H131 = molecular target: T3, FcγRIIA H131 (human, UniProt P12318 36-218, limits assumed); assay: Biacore, KD from equilibrium analysis
T3 sequence (looked up): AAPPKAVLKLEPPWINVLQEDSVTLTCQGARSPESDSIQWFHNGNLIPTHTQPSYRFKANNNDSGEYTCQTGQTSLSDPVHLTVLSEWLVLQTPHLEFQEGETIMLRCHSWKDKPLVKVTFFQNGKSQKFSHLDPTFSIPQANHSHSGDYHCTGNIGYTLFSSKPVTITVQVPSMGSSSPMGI
Description: (§1) K¹ (M) values were calculated from the ratio of the kinetic constants as KD=koff/kₒₙ. K2 (M) values were determined by the analyte concentration at which half of the ligands are occupied at equilibrium.

FcγRIIIA F158 = FcγRIIIA F158 (human, UniProt P08637 17-208, limits assumed); assay: Biacore, KD from equilibrium analysis
FcγRIIIA F158, sequence (P08637 17-208 limits assumed): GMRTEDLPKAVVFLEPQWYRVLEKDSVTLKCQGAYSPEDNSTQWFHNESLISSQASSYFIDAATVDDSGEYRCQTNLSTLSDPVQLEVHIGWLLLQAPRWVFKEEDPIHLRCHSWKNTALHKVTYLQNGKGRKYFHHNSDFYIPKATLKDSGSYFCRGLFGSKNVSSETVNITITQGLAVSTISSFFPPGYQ
Description: as §1

FcγRI = FcγRI (human, UniProt P12314 16-288, limits assumed); assay: Biacore, KD from kinetic constants (koff/kon)
FcγRI, sequence (P12314 16-288 limits assumed): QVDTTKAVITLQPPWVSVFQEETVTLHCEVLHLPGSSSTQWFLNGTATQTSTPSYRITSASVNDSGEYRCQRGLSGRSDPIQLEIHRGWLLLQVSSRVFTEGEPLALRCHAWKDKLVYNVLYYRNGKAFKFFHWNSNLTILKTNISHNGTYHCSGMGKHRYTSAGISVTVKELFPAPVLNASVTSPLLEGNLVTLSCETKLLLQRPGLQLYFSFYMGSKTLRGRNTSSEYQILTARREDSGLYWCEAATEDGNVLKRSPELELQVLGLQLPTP
Description: as §1

[3] = molecular target: T1, human PVRIG expressed on cells; assay: flow cytometry on HuPVRIG-overexpressed Jurkat cells
[4] = molecular target: T4, Human Serum Albumin Protein His Tag (human, UniProt P02768 25-609); assay: immunohistochemistry on protein smears, Biotin-BGA384
T4 construct: also called negative control protein smear; not shown: His tag
T4 sequence (P02768 25-609 limits assumed): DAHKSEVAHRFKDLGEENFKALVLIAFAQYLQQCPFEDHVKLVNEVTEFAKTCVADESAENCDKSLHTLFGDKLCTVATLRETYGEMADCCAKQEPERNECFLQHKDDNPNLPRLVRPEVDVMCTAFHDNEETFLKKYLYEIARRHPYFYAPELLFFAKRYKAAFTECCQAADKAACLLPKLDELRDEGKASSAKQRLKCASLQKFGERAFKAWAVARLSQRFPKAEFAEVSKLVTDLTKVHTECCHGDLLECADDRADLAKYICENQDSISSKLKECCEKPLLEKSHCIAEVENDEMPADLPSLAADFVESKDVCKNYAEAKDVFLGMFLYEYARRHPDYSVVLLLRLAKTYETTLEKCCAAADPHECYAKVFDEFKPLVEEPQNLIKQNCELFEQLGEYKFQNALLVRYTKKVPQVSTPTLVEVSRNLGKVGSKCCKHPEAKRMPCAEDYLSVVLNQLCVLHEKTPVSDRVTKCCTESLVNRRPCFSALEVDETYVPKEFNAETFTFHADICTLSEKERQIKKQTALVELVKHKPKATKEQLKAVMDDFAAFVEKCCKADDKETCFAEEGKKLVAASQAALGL
Source text: Materials and Methods: A total of 35 tissue types, each in triplicate from 3 donors, were used for the evaluation. […] 0.5 and […] Biotin-Human IgG1-Kappa (IgG1 isotype control), and 0.01 mol/L phosphate-buffered saline (reagent control).

[5] = molecular target: T5, human PVRIG recombinant protein (human, UniProt Q6DKI7 41-171); assay: SPR, antibody captured via anti-human Fc, human PVRIG analyte
T5 construct: also called human PVRIG protein; recombinant human antigen PVRIG
T5 sequence: T2 sequence
Source text: For affinity determination, anti-PVRIG antibodies were captured by anti-human Fc antibodies, and used in the affinity assay based on surface plasmon resonance (SPR) technology.

hPVRIG-ECD-his = molecular target: T6, hPVRIG-ECD-his (human, UniProt Q6DKI7 41-171); assay: SPR (Biacore), BGA384 captured via anti-human Fc, human PVRIG-His analyte
T6 construct: Acrobiosystems PVG-H52H4; also called hPVRIG-His; human PVRIG-His; not shown: His tag
T6 sequence: T2 sequence
Description: SPR koff and kₒₙ were calculated using the one-to-one Langmuir binding model (BIA Evaluation Software, GE Life Sciences); KD was calculated as the ratio of koff/kₒₙ.

[6] = molecular target: T5, human PVRIG recombinant protein; assay: competition ELISA, BGA384 against biotinylated human PVRL2 (Fc-Avi-tag) on coated human PVRIG
[7] = molecular target: T7, Cyno PVRIG expressed on HEK293 cells (cynomolgus monkey); assay: flow cytometry on HEK293 cells expressing cyno PVRIG, anti-hFc-647 detection [panel B]
T7 construct: also called native Cyno PVRIG
T7 chain: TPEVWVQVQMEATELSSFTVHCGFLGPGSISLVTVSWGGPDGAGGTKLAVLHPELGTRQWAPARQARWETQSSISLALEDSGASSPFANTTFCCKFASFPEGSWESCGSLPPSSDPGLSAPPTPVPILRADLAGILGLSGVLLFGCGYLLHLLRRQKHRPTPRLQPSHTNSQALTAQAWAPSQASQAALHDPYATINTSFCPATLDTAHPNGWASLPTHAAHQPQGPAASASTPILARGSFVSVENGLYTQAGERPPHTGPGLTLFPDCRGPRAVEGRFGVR
Description: (§2) To evaluate the binding activity of anti-PVRIG antibodies to native Cyno PVRIG on living cells. HEK293 cells were engineered to express Cyno PVRIG. HEK293 cells transfected with Cyno PVRIG were seeded in 96 well plates and were incubated with a serial dilution of anti-PVRIG antibodies. […] EC50 values for dose dependent binding to Cyno native PVRIG were determined by fitting the dose response data to the four-parameter logistic model with GraphPad Prism™.

[8] = molecular target: T1, human PVRIG expressed on cells; assay: flow cytometry on Jurkat cells expressing human PVRIG, anti-hFc-647 detection [panel B]
Description: as §2, with “native” for “native Cyno”, “cells, Jurkat” for “cells. HEK293”, “human” for “Cyno”, “Jurkat” for “HEK293”, “expressing” for “transfected with Cyno”, “serially diluted” for “a serial dilution of”

human PVRIG-mIgG2a [9] = molecular target: T2, human PVRIG-mIgG2a; assay: cell-based competition, BGA384 against binding of hPVRIG-mIgG2a (300 ng/ml) to Farage-hPVRL2 cells, flow cytometry
Source text: The bound human PVRIG was detected with PE anti-mouse IgG2a antibody by flow cytometry.

EC50 of promoter-driven luminescence, JK-NFAT-HuPVRIG with A549/OS8-H cells [1]: 0.0377 µg/mL
EC50 (human PVRIG-mIgG2a [2]): 0.00879 µg/mL
Kd (FcγRIIA H131): 1480 nM
Kd (FcγRIIIA F158): 689 nM
Kd (FcγRI): 3.26 nM
EC50 [3]: 0.0269 µg/mL
binding result [4]: no binding (tested: 0.5 and 1 µg/mL)
Kd [5]: 0.258 nM
koff [5]: 0.000304 s⁻¹
kon [5]: 1.18e+06 M⁻¹ s⁻¹
Kd (hPVRIG-ECD-his): 0.0826 nM
koff (hPVRIG-ECD-his): 0.000344 s⁻¹
kon (hPVRIG-ECD-his): 4.16e+06 M⁻¹ s⁻¹
IC50 [6]: 0.383 µg/mL
EC50 (read off the curve) [7]: ~0.05 µg/mL
EC50 (read off the curve) [8]: ~0.03 µg/mL
IC50 (human PVRIG-mIgG2a [9]): 0.109 µg/mL
B1: BGA384 (antibody, human IgG1, kappa)
heavy: not shown
light: QIVLTQSPATLSLSPGERATLSCSAGSSVNYMHWFQQKPGQAPRLLIYSTSNLASGVPARFSGSGSGTDYTLTISSLEPEDFAVYYCQQRSSLPFTFGQGTKLEIKRTVAAPSVFIFPPSDEQLKSGTASVVCLLNNFYPREAKVQWKVDNALQSGNSQESVTEQDSKDSTYSLSSTLTLSKADYEKHKVYACEVTHQGLSSPVTKSFNRGEC
notes: also called BGB-A538; BGA384 WT
